Reference: patent US7906477
Square brackets hold non-standard residues; d marks the D form. Ends that are not written are not given here. Tyr(3-NO2) = N[C@@H](Cc1ccc(O)c([N+](=O)[O-])c1)C(=O)O; Abz = aminobenzoic acid; Dap = NC[C@H](N)C(=O)O

Biological target: human glandular kallikrein 2 (hK2), enzymatically active (human), P20151
Assay: cell-based or functional assay

Binder [Tyr(3-NO2)]GKAFRL[Dap]FK(Abz)-{PEGA resin} [Y′GKAFRL-Dap-F-K′-PEGA (SEQ ID NO:53)] has a time required to generate clearly detectable fluorescence on the beads of 4 to 5 h.
